Primed or numbered codes have the meaning given here. Where no end group is shown, it is not given here. [ ]: non-standard residue; d: D form. The star is where a group is joined. Asu′ = aspartimide (aminosuccinimide); Hyp = O=C(O)[C@@H]1C[C@@H](O)CN1; Tle = CC(C)(C)[C@H](N)C(=O)O; Aib = CC(C)(N)C(=O)O; OiPr = CC(C)O*
Assay: Evaluation of dissolution stability (content change on storage in dissolved state)
Format: physicochemical
Details: 1 mg/1 ml dissolved state, 40° C. and RH 75%

Row | Substance | Day 1 content (%) | Day 3 content (%) | Day 7 content (%) | Initial content (%)
1 | Hyp-Gly-Gln-Asp-Aib ([Hyp]GQD[Aib]) [Example 85] | 92.08 | 88.07 | 75.04 | 92.62
2 | Hyp-Gly-Gln-Asp-Aib-Leu-Ala ([Hyp]GQD[Aib]LA) [Example 83] | 95.35 | 94.70 | 94.00 | 95.42
3 | Hyp-Gly-Gln-Asp-Ala ([Hyp]GQDA) [Example 33] | 96.68 | 89.94 | 86.76 | 99.46
4 | Hyp-Gly-Gln-Asp-Ala-Leu ([Hyp]GQDAL) [Example 36] | 94.13 | 90.58 | 85.95 | 95.40
5 | Hyp-Gly-Gln-Asp-Ala-Leu-Ala ([Hyp]GQDALA) [Example 39] | 91.76 | 88.16 | 85.50 | 93.03
6 | Hyp-Gly-Gln-Asp-Gly (isopropyl ester) [Example 106] | 81.47 | 75.61 | 68.25 | 89.54
7 | Hyp-Gly-Gln-Asp-Gly-D Leu ([Hyp]GQDG[dL]) [Example 62] | 92.60 | 84.99 | 70.41 | 97.24
8 | Hyp-Gly-Gln-Asp-Gly-D Leu-Ala ([Hyp]GQDG[dL]A) [Example 65] | 92.97 | 86.96 | 75.40 | 95.64
9 | Hyp-Gly-Gln-Asp-Gly-Leu (isopropyl ester) [Example 107] | 76.34 | 65.41 | 58.41 | 87.55
10 | Hyp-Gly-Gln-Asp-Gly-Leu-Ala ([Hyp]GQDGLA) [Example 12] | 89.90 | 79.04 | 58.75 | 95.31
11 | Hyp-Gly-Gln-Asp-Gly-Leu-Ala (isopropyl ester) ([Hyp]GQDGLA-OiPr) [Example 108] | 67.07 | 62.81 | 59.24 | 79.49
12 | Hyp-Gly-Gln-Asp-Gly-Leu-Ala-Gly ([Hyp]GQDGLAG) [Example 15] | 91.06 | 81.63 | 70.56 | 91.84
13 | Hyp-Gly-Gln-Asp-Gly-Leu-D Ala ([Hyp]GQDGL[dA]) [Example 66] | 89.15 | 79.64 | 60.49 | 96.42
14 | Hyp-Gly-Gln-Asp-Gly-Pro-Lys ([Hyp]GQDGPK) [Example 28] | 98.50 | 97.37 | 96.19 | 99.14
15 | Hyp-Gly-Gln-Asp-Gly-Val ([Hyp]GQDGV) [Example 71] | 93.07 | 88.76 | 82.04 | 95.21
16 | Hyp-Gly-Gln-Asp-Gly-Val-Ala ([Hyp]GQDGVA) [Example 72] | 95.91 | 90.84 | 82.07 | 97.08
17 | Hyp-Gly-Gln-Asp-Leu-Leu ([Hyp]GQDLL) [Example 35] | 97.50 | 95.78 | 93.68 | 98.51
18 | Hyp-Gly-Gln-Asp-Leu-Leu-Ala ([Hyp]GQDLLA) [Example 38] | 92.19 | 88.19 | 85.93 | 97.06
19 | Hyp-Gly-Gln-Asp-Val ([Hyp]GQDV) [Example 21] | 79.91 | 77.37 | 69.10 | 84.05
20 | Hyp-Gly-Gln-Asp-Val-Leu [Example 22] ([Hyp]GQDVL) | 85.47 | 83.10 | 82.67 | 88.14
21 | Hyp-Gly-Gln-Asp-Val-Leu [Example 34] ([Hyp]GQDVL) | 97.05 | 95.50 | 91.59 | 97.18
22 | Hyp-Gly-Gln-Asp-Val-Leu-Ala ([Hyp]GQDVLA) [Example 23] | 95.25 | 94.22 | 90.56 | 96.40
23 | Hyp-Gly-Gln-Asp-Val-Leu-Ala-Gly ([Hyp]GQDVLAG) [Example 24] | 96.14 | 95.71 | 95.13 | 96.57

Row | Substance | Day 1 content (%) | Day 3 content (%) | Day 7 content (%) | Initial content (%)
24 | Hyp-Gly-Gln-Asu-Gly ([Hyp]GQ[Asu′]G) [Example 100] | 93.43 | 85.30 | 74.12 | 97.58
25 | Hyp-Gly-Gln-Asu-Gly (isopropyl ester) [Example 109] | 79.15 | 69.45 | 59.07 | 85.34
26 | Hyp-Gly-Gln-Asu-Gly-Leu ([Hyp]GQ[Asu′]GL) [Example 101] | 86.61 | 86.38 | 83.40 | 88.72
27 | Hyp-Gly-Gln-Asu-Gly-Leu (isopropyl ester) [Example 111] | 90.71 | 82.07 | 69.37 | 97.48
28 | Hyp-Gly-Gln-Asu-Gly-Leu-Ala ([Hyp]GQ[Asu′]GLA) [Example 102] | 90.18 | 85.07 | 81.09 | 92.47
29 | Hyp-Gly-Gln-Asu-Gly-Leu-Ala (isopropyl ester) [Example 113] | 92.40 | 85.41 | 72.35 | 93.25
30 | Hyp-Gly-Gln-D Asp-Gly-Leu ([Hyp]GQ[dD]GL) [Example 61] | 87.65 | 83.70 | 56.36 | 92.80
31 | Hyp-Gly-Gln-D Asp-Leu ([Hyp]GQ[dD]L) [Example 125] | 97.15 | 95.07 | 88.48 | 98.28
32 | Hyp-Gly-Gln-Glu-Aib-Leu-Ala ([Hyp]GQE[Aib]LA) [Example 92] | 97.05 | 96.92 | 96.56 | 96.92
33 | Hyp-Gly-Gln-Glu-Gly ([Hyp]GQEG) [Example 67] | 99.14 | 98.75 | 98.07 | 98.36
34 | Hyp-Gly-Gln-Glu-Gly-Leu ([Hyp]GQEGL) [Example 68] | 98.25 | 97.51 | 96.93 | 98.71
35 | Hyp-Gly-Gln-Glu-Gly-Leu-Ala ([Hyp]GQEGLA) [Example 69] | 96.94 | 96.32 | 95.69 | 97.12
36 | Hyp-Gly-Gln-Glu-Leu ([Hyp]GQEL) [Example 90] | 98.58 | 98.32 | 97.94 | 98.68
37 | Hyp-Gly-Gln-Glu-Leu-Leu ([Hyp]GQELL) [Example 88] | 98.94 | 98.07 | 97.37 | 99.23
38 | Hyp-Gly-Gln-Glu-Phenyl Gly-Leu-Ala [Example 94] | 98.77 | 98.43 | 98.15 | 98.59
39 | Hyp-Gly-Gln-Glu-Val-Leu ([Hyp]GQEVL) [Example 89] | 99.07 | 98.81 | 98.43 | 99.57
40 | Hyp-Gly-Gln-Glu-Val-Leu-Ala ([Hyp]GQEVLA) [Example 87] | 98.07 | 96.57 | 94.38 | 99.14
41 | Hyp-Gly-Gln-Glu-tert Leu-Leu-Ala ([Hyp]GQE[Tle]LA) [Example 93] | 98.35 | 98.05 | 97.79 | 98.39
42 | Hyp-Gly-Gln-His-Gly-Leu ([Hyp]GQHGL) [Example 82] | 92.51 | 85.09 | 79.04 | 97.54
43 | Hyp-Gly-Gln-His-Gly-Leu-Ala ([Hyp]GQHGLA) [Example 80] | 97.18 | 97.13 | 97.07 | 98.44
44 | Hyp-Gly-Gln-Leu-Gly-Leu-Ala-Gly ([Hyp]GQLGLAG) [Example 17] | 96.53 | 96.69 | 96.27 | 96.55
45 | Hyp-Gly-Gln-Leu-Leu ([Hyp]GQLL) [Example 121] | 99.29 | 99.13 | 99.22 | 99.39

From patent US12428446B2, “Peptide compound or pharmaceutically acceptable salt thereof” (Eyebio Korea, priority 2019, dated 2025)
